The values below come from article PMC10397247.

The target of one assay is T1, APC3354-AA.
T1 chain: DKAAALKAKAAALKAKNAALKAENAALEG
Briefly: two-hybrid library CCmax.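 Note: natural log of median RNA to DNA barcode read ratio; higher means stronger binding.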

The target in the next assay is T2, APC3881-AA.
T2 chain: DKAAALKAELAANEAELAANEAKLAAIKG
Briefly: two-hybrid library CCmax.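 Note: natural log of median RNA to DNA barcode read ratio; higher means stronger binding.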 The following applies: mean of both orientations.

A further assay addresses T3, APC4100-AA.
T3 chain: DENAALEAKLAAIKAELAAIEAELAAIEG
Kind of assay: two-hybrid library CCmax.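 Note: natural log of median RNA to DNA barcode read ratio; higher means stronger binding.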 The following applies: mean of both orientations.

For a further assay, the target named is T4, APC4336-AA.
T4 chain: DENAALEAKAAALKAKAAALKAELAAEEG
Briefly: two-hybrid library CCmax.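 Note: natural log of median RNA to DNA barcode read ratio; higher means stronger binding.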 The conditions noted are these: mean of both orientations.

Another assay addresses T5, APC5009-AA.
T5 chain: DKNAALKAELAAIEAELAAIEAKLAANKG
Kind of assay: two-hybrid library CCmax.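 Note: natural log of median RNA to DNA barcode read ratio; higher means stronger binding.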 The conditions noted are these: mean of both orientations.

The next assay deals with T6, APC542-AA.
T6 chain: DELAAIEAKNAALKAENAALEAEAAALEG
Briefly: two-hybrid library CCmax.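 Note: natural log of median RNA to DNA barcode read ratio; higher means stronger binding.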 The conditions noted are these: mean of both orientations.

A further assay concerns the target T7, APC5531-AA.
T7 chain: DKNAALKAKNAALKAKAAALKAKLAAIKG
Briefly: two-hybrid library CCmax. The following applies: mean of both orientations.

Another assay deals with T8, APC6088-AA.
T8 chain: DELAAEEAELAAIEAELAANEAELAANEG
Briefly: two-hybrid library CCmax. The conditions noted are these: mean of both orientations.

Another assay concerns the target T9, APC7524-AA.
T9 chain: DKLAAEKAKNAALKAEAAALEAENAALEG
Briefly: two-hybrid library CCmax. The conditions noted are these: mean of both orientations.

In a further assay the target is T10, APC8401-AA.
T10 chain: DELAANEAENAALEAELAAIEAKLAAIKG
Briefly: two-hybrid library CCmax. The following applies: mean of both orientations.

For a further assay, the target named is T11, APC8516-AA.
T11 chain: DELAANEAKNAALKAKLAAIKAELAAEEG
Briefly: two-hybrid library CCmax. The conditions noted are these: mean of both orientations.

A further assay concerns the target T12, APC9141-AA.
T12 chain: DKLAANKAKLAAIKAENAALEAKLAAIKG
Briefly: two-hybrid library CCmax. The following applies: mean of both orientations.

The target of the next assay is T13, APC9182-AA.
T13 chain: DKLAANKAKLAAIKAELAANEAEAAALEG
Kind of assay: two-hybrid library CCmax. The conditions noted are these: mean of both orientations.

The target of the next assay is T14, APC9291-AA.
T14 chain: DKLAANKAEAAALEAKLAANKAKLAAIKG
Briefly: two-hybrid library CCmax. The following applies: mean of both orientations.

A further assay concerns the target T15, APC9806-AA.
T15 chain: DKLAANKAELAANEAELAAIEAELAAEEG
Briefly: two-hybrid library CCmax. The conditions noted are these: mean of both orientations.

The next assay addresses T16, O9.
T16 chain: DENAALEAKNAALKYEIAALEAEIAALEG
Kind of assay: two-hybrid library CCNG1.

B1: APC3354-AA (peptide)
chain: DKAAALKAKAAALKAKNAALKAENAALEG
Turning to B1, the interaction score with APC3354-AA was -1.59; in the assay with APC3881-AA, -1.72; in the assay with APC4100-AA it was -1.66; with APC4336-AA, -2.08; with APC5009-AA, -1.49; with APC542-AA, -1.89. Moreover, the interaction score in the assay with APC5531-AA was -1.92; with APC6088-AA it was -1.77; with APC7524-AA, -1.71; with APC8401-AA, -1.48; in the assay with APC8516-AA, -1.98; with APC9141-AA, -1.68. Further, the interaction score with APC9182-AA is -1.72; in the assay with APC9291-AA, -1.68; with APC9806-AA it was -1.33.

B2: O9 (peptide)
chain: DENAALEAKNAALKYEIAALEAEIAALEG
As to B2, in the assay with O9, the interaction score is -2.24.
